Experimental data published in patent US20250276075A1, “METHODS OF TREATING AXL-EXPRESSING CANCERS WITH ANTI-AXL ANTIBODIES, ANTIBODY FRAGMENTS AND THEIR IMMUNOCONJUGATES” (BIOATLA, INC., priority 2020, published 2025).

T1: Axl (Homo sapiens, UniProt P30530)
T1 sequence (P30530 26-451 limits assumed): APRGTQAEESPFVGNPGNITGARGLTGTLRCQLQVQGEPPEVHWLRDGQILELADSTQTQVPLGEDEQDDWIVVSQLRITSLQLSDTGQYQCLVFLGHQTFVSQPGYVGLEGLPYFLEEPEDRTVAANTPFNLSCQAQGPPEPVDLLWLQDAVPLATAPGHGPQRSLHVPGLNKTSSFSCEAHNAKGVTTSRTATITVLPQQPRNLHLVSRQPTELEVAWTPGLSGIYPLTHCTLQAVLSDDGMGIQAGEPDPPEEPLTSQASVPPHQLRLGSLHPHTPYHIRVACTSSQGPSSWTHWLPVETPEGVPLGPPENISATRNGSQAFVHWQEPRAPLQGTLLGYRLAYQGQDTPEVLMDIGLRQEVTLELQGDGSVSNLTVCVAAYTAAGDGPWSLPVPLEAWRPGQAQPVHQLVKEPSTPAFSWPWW


Experiments:
[1] = target: Axl (UniProt P30530); experiment: ELISA, 1:9 dilution
[2] = target: T1, Axl; experiment: Affinity ELISA of CPE mutant antibodies for binding to Axl at pH 6.0 over pH 7.4; conditions: for Affinity ELISA CPE mutant ratio (1:3, pH 6.0/7.4): 1:3 dilution; for Affinity ELISA CPE mutant ratio (1:9, pH 6.0/7.4): 1:9 dilution
Source text: The DNA encoding the wild-type antibody was evolved to generate a mutant antibody library using Comprehensive Positional Evolution (CPE), which each position in the template antibody is randomized one at a time. Each mutant antibody in the library has only one single point mutation. The mutant antibodies in the library were generated by simultaneously screening for selective binding affinity to Axl at pH 6.0 over pH 7.4 by ELISA. Two mutant antibody dilutions were used: 1:3 and 1:9 dilutions. The mutant antibodies that have at least 1.5 ratio of binding affinity at pH 6.0 to at pH 7.4 under either 1:3 or 1:9 dilution are selected as conditionally active antibodies, with the single point mutations indicated in each of the heavy chain and light chain variable region (Tables 1 and 2).
A wild-type antibody to Axl was selected as the template antibody (with a heavy chain variable region of 063-hum10F10-HC in FIG. 1A and a light chain variable region of […]). The DNA encoding the wild-type antibody was evolved to generate a mutant antibody library using Comprehensive Positional Evolution (CPE), a method by which each position in the template antibody is randomized one at a time. Each mutant antibody in the library has only one single point mutation. The mutant antibodies in the library were generated by simultaneously screening for selective binding affinity to Axl at pH 6.0 over pH 7.4 as determined by ELISA.
Simultaneously, the expression level of the mutant antibodies was also optimized for the purpose of higher fields in a manufacturing process. The screening was done in serum using a FLAG tag because there were human antibodies in the serum which might cause false positives for the screening. The screening buffer was a carbonate buffer (Krebs buffer with ringer-standard buffer but different from PBS). […] Some of the selected mutant antibodies (scFv) were represented in FIG. 2 with their higher activity at pH 6.0 than at pH 7.4, while their activity ratios between pH 6.0 to pH 7.4 were at least 11 fold (FIG. 3).

[3] = target: Axl (UniProt P30530); experiment: ELISA, 1:3 dilution
[4] = light chain variable region mutants
[5] = heavy chain variable region mutants

Molecule | Affinity ELISA CPE mutant ratio (1:9, pH 6.0/7.4) [1] | Affinity ELISA CPE mutant ratio (1:3, pH 6.0/7.4) [2, 4] | Affinity ELISA CPE mutant ratio (1:9, pH 6.0/7.4) [2, 4] | Affinity ELISA CPE mutant ratio (1:3, pH 6.0/7.4) [3] | Affinity ELISA CPE mutant ratio (1:3, pH 6.0/7.4) [2, 5] | Affinity ELISA CPE mutant ratio (1:9, pH 6.0/7.4) [2, 5]
LC-F092N (antibody, V domains shown) VH: EVQLVQSGAEVKKPGATVKISCKVSGYSFTGHTMNWIRQPPGKGLEWIGLIKPSNGGTSYNQKFKGRVTISADKSISTAYLQWSSLKASDTAMYYCAHGHYESYFAMDYWGQGTLVTVSS VL: DIQMTQSPSSLSASVGDRVTITCKASQDVSSAVAWYQQKPGQAPRLLIYWASTRHTGVPSRFSGSGSGTEFTLTISSLQPDDFATYYCQEHNSTPLTFGQGTKVEIK | 2 | 1.933 | 2.004 | 1.93 |  | 
LC-W050F (antibody, V domains shown) VH: EVQLVQSGAEVKKPGATVKISCKVSGYSFTGHTMNWIRQPPGKGLEWIGLIKPSNGGTSYNQKFKGRVTISADKSISTAYLQWSSLKASDTAMYYCAHGHYESYFAMDYWGQGTLVTVSS VL: DIQMTQSPSSLSASVGDRVTITCKASQDVSSAVAWYQQKPGQAPRLLIYFASTRHTGVPSRFSGSGSGTEFTLTISSLQPDDFATYYCQEHFSTPLTFGQGTKVEIK | 3.5 | 2.245 | 3.504 | 2.25 |  | 
LC-F092S (antibody, V domains shown) VH: EVQLVQSGAEVKKPGATVKISCKVSGYSFTGHTMNWIRQPPGKGLEWIGLIKPSNGGTSYNQKFKGRVTISADKSISTAYLQWSSLKASDTAMYYCAHGHYESYFAMDYWGQGTLVTVSS VL: DIQMTQSPSSLSASVGDRVTITCKASQDVSSAVAWYQQKPGQAPRLLIYWASTRHTGVPSRFSGSGSGTEFTLTISSLQPDDFATYYCQEHSSTPLTFGQGTKVEIK | 2.94 | 3.179 | 2.937 | 3.18 |  | 
LC-A051I (antibody, V domains shown) VH: EVQLVQSGAEVKKPGATVKISCKVSGYSFTGHTMNWIRQPPGKGLEWIGLIKPSNGGTSYNQKFKGRVTISADKSISTAYLQWSSLKASDTAMYYCAHGHYESYFAMDYWGQGTLVTVSS VL: DIQMTQSPSSLSASVGDRVTITCKASQDVSSAVAWYQQKPGQAPRLLIYWISTRHTGVPSRFSGSGSGTEFTLTISSLQPDDFATYYCQEHFSTPLTFGQGTKVEIK | 2.14 | 2.241 | 2.139 | 2.24 |  | 
LC-T094C (antibody, V domains shown) VH: EVQLVQSGAEVKKPGATVKISCKVSGYSFTGHTMNWIRQPPGKGLEWIGLIKPSNGGTSYNQKFKGRVTISADKSISTAYLQWSSLKASDTAMYYCAHGHYESYFAMDYWGQGTLVTVSS VL: DIQMTQSPSSLSASVGDRVTITCKASQDVSSAVAWYQQKPGQAPRLLIYWASTRHTGVPSRFSGSGSGTEFTLTISSLQPDDFATYYCQEHFSCPLTFGQGTKVEIK | 1.77 | 1.423 | 1.768 | 1.42 |  | 
LC-A051N (antibody, V domains shown) VH: EVQLVQSGAEVKKPGATVKISCKVSGYSFTGHTMNWIRQPPGKGLEWIGLIKPSNGGTSYNQKFKGRVTISADKSISTAYLQWSSLKASDTAMYYCAHGHYESYFAMDYWGQGTLVTVSS VL: DIQMTQSPSSLSASVGDRVTITCKASQDVSSAVAWYQQKPGQAPRLLIYWNSTRHTGVPSRFSGSGSGTEFTLTISSLQPDDFATYYCQEHFSTPLTFGQGTKVEIK | 2.2 | 1.412 | 2.200 | 1.41 |  | 
LC-P095A (antibody, V domains shown) VH: EVQLVQSGAEVKKPGATVKISCKVSGYSFTGHTMNWIRQPPGKGLEWIGLIKPSNGGTSYNQKFKGRVTISADKSISTAYLQWSSLKASDTAMYYCAHGHYESYFAMDYWGQGTLVTVSS VL: DIQMTQSPSSLSASVGDRVTITCKASQDVSSAVAWYQQKPGQAPRLLIYWASTRHTGVPSRFSGSGSGTEFTLTISSLQPDDFATYYCQEHFSTALTFGQGTKVEIK | 2.99 | 2.523 | 2.987 | 2.52 |  | 
LC-A051P (antibody, V domains shown) VH: EVQLVQSGAEVKKPGATVKISCKVSGYSFTGHTMNWIRQPPGKGLEWIGLIKPSNGGTSYNQKFKGRVTISADKSISTAYLQWSSLKASDTAMYYCAHGHYESYFAMDYWGQGTLVTVSS VL: DIQMTQSPSSLSASVGDRVTITCKASQDVSSAVAWYQQKPGQAPRLLIYWPSTRHTGVPSRFSGSGSGTEFTLTISSLQPDDFATYYCQEHFSTPLTFGQGTKVEIK | 1.57 | 1.920 | 1.569 | 1.92 |  | 
HC-E102R (antibody, V domains shown) VH: EVQLVQSGAEVKKPGATVKISCKVSGYSFTGHTMNWIRQPPGKGLEWIGLIKPSNGGTSYNQKFKGRVTISADKSISTAYLQWSSLKASDTAMYYCAHGHYRSYFAMDYWGQGTLVTVSS VL: DIQMTQSPSSLSASVGDRVTITCKASQDVSSAVAWYQQKPGQAPRLLIYWASTRHTGVPSRFSGSGSGTEFTLTISSLQPDDFATYYCQEHFSTPLTFGQGTKVEIK | 3.42 |  |  | 3.7 | 3.701 | 3.416
LC-P095C (antibody, V domains shown) VH: EVQLVQSGAEVKKPGATVKISCKVSGYSFTGHTMNWIRQPPGKGLEWIGLIKPSNGGTSYNQKFKGRVTISADKSISTAYLQWSSLKASDTAMYYCAHGHYESYFAMDYWGQGTLVTVSS VL: DIQMTQSPSSLSASVGDRVTITCKASQDVSSAVAWYQQKPGQAPRLLIYWASTRHTGVPSRFSGSGSGTEFTLTISSLQPDDFATYYCQEHFSTCLTFGQGTKVEIK | 2.63 | 2.350 | 2.630 | 2.35 |  | 
LC-H091C (antibody, V domains shown) VH: EVQLVQSGAEVKKPGATVKISCKVSGYSFTGHTMNWIRQPPGKGLEWIGLIKPSNGGTSYNQKFKGRVTISADKSISTAYLQWSSLKASDTAMYYCAHGHYESYFAMDYWGQGTLVTVSS VL: DIQMTQSPSSLSASVGDRVTITCKASQDVSSAVAWYQQKPGQAPRLLIYWASTRHTGVPSRFSGSGSGTEFTLTISSLQPDDFATYYCQECFSTPLTFGQGTKVEIK | 3.02 | 4.003 | 3.025 | 4 |  | 
LC-P095D (antibody, V domains shown) VH: EVQLVQSGAEVKKPGATVKISCKVSGYSFTGHTMNWIRQPPGKGLEWIGLIKPSNGGTSYNQKFKGRVTISADKSISTAYLQWSSLKASDTAMYYCAHGHYESYFAMDYWGQGTLVTVSS VL: DIQMTQSPSSLSASVGDRVTITCKASQDVSSAVAWYQQKPGQAPRLLIYWASTRHTGVPSRFSGSGSGTEFTLTISSLQPDDFATYYCQEHFSTDLTFGQGTKVEIK | 2.89 | 3.949 | 2.889 | 3.95 |  | 
LC-H091F (antibody, V domains shown) VH: EVQLVQSGAEVKKPGATVKISCKVSGYSFTGHTMNWIRQPPGKGLEWIGLIKPSNGGTSYNQKFKGRVTISADKSISTAYLQWSSLKASDTAMYYCAHGHYESYFAMDYWGQGTLVTVSS VL: DIQMTQSPSSLSASVGDRVTITCKASQDVSSAVAWYQQKPGQAPRLLIYWASTRHTGVPSRFSGSGSGTEFTLTISSLQPDDFATYYCQEFFSTPLTFGQGTKVEIK | 2.12 | 1.603 | 2.116 | 1.6 |  | 
